What was measured:
[1] = target: ACP-TM with the C-terminal YFP fragment at its C terminus (rabbit | not stated); assay: split reporter
[2] = target: N-formyl peptide receptor (FPR), nonactivating mutant D71A (UniProt P21462); assay: single-molecule TIRF imaging, 2D-3D Scatchard plot
[3] = target: N-formyl peptide receptor (FPR), nonactivating mutant D71A (UniProt P21462); assay: TIRF imaging, time course of surface-bound fluorescence
[4] = target: the molecule itself; assay: single-molecule TIRF imaging, duration of colocalization events
[5] = target: the molecule itself; assay: single-molecule TIRF imaging, spot-intensity histograms against expression level

With “ACP-TM with the N-terminal YFP fragment at its C terminus (from UniProt P42212 1-155)” the corrected lifetime of BiFC dimers [1] was 163 ms.

For “N-formyl-Nle-Leu-Phe-Nle-Tyr-Lys conjugated with Alexa Fluor 594 (peptide)”, the Kd [2] was 2.2 nM and the kon [3] was 7.6e+06 M⁻¹ s⁻¹.

B1: N-formyl peptide receptor (FPR), nonactivating mutant D71A (receptor, UniProt P21462 1-350, looked up)
chain: METNSSLPTNISGGTPAVSAGYLFLDIITYLVFAVTFVLGVLGNGLVIWVAGFRMTHTVTTISYLNLAVAAFCFTSTLPFFMVRKAMGGHWPFGWFLCKFVFTIVDINLFGSVFLIALIALDRCVCVLHPVWTQNHRTVSLAKKVIIGPWVMALLLTLPVIIRVTTVPGKTGTVACTFNFSPWTNDPKERINVAVAMLTVRGIIRFIIGFSAPMSIVAVSYGLIATKIHKQGLIKSSRPLRVLSFVAAAFFLCWSPYQVVALIATVRIRELLQGMYKEIGIAVDVTSALAFFNSCLNPMLYVFMGQDFRERLIHALPASLERALTEDSTQTSDTATNSTLPSAEVELQAK
With B1 the koff [4] was 11 s⁻¹ and the “stoichiometry N” value [5] was 2.

— PMC3101103 (The Journal of Cell Biology, 2011)
